As a reminder, the EC50 is the concentration needed to bring the measured effect to its halfway point. A high value points to lower potency in that assay.

In publication PMC5551578 (2017) one finds EC50 data, which are given here for five molecules.

T1: tetanus toxoid (UniProt P04958 1-1315)
T1 chain: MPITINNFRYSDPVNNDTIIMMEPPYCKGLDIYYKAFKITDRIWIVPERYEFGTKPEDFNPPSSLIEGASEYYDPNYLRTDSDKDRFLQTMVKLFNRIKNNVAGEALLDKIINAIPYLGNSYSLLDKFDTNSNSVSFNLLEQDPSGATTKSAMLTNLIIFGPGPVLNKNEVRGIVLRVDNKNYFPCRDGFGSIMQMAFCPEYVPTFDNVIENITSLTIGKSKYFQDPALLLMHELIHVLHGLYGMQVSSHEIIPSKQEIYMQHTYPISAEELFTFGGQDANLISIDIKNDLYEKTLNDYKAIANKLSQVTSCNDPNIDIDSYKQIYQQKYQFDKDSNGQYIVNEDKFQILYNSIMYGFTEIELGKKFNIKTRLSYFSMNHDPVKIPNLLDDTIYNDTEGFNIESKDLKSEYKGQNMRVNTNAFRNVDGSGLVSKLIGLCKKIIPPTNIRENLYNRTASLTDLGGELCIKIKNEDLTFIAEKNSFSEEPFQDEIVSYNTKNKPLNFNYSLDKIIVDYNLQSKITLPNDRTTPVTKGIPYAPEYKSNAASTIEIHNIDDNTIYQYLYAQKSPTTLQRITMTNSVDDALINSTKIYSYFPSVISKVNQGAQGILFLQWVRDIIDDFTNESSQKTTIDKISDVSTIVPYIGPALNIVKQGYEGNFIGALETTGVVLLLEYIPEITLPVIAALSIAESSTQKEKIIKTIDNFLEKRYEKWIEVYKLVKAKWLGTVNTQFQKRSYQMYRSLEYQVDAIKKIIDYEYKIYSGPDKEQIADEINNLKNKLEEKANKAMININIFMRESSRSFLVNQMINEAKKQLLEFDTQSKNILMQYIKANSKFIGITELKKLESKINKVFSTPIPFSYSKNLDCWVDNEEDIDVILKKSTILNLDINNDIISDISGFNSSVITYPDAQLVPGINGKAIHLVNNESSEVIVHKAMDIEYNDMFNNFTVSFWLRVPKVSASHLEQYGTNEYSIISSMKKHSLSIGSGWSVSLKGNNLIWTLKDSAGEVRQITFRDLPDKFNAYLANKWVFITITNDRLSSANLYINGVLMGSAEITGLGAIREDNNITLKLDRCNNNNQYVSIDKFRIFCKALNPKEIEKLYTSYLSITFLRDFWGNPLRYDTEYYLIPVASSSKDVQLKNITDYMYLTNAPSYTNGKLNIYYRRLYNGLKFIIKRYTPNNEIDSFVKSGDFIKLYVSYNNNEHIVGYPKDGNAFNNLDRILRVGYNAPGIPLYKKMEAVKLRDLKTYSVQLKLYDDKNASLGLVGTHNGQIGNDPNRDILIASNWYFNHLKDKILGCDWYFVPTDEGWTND

B1: TT-Ab10 (antibody, V domains shown)
VH: EVQLVESGGGLVQPGGSLRVSCGASGFTFANFWMSWVRQAPGKGLEWVANINQDGNERKYVDSVKGRFTISRDNDKNSLYLQMNSLRAEDTAVYFCAREYGSYWRTYYFDDWGQGTLVTVSS
VL: DIVMTQSPATLSLSPGERATLSCRASQSVSNYLAWYQQKPGQAPRLLIYDASNRASGTPARFSGSGFGTDFTLTISSLDPEDFAVYYCQQGSNWLTFGGGTKVEIK
B2: TT-Ab12 (antibody, V domains shown)
VH: QVQLQESGPGLVKPSETLSLTCNVSGASISRYYWAWIRQPPGKGLEWIGYIYDSGTTTYNTSLKSRVTISRDTSKNQFSLNMMSVTAADTAVYYCARARYYYDSTGYFYGWLDPWGQGRLVTVSF
VL: DIQMTQSPSTLSASVGDRVTITCRASQSINIWLAWYQQRPGKAPDLLIYKASTLQSGVPSRFSGSGSGTEFTLTISSVQPDDFATYYCQQYKSYSCSFGQGTKVEIN
B3: TT-Ab4 (antibody, V domains shown)
VH: EVQLVQSGAEMKKPGSSVKVSCRMSGGKFNNYAMSWVRQAPGQGLEWVGGIIPVLGTANYAQKFQDRVAITADKSTNTAYMELSSLRSDDTAVYYCARVWGTVVTQGPSQVQYNHYGMDVWGQGTTVTVSS
VL: DIQLTQSPSSLSASVGDRVTITCRATQSISSSLNWYQHKPGKAPNLLISAASNLQSGVPSRFSGSGSRTDFTLTITNLQPEDFATYYCQQSYTTPLTFGGGTKVEIK
B4: TT-Ab9 (antibody, V domains shown)
VH: EVQLVESGGSLVQPGGSLRLSCVGTGFTFNTYWMSWVRQAPGKGLEWVANIKQDGREKHYVDSVMGRFTVSRDNAMNALYLQVNSLRVEDTAVYYCARGMTAWSLGGYQYDYWGQGTQVTVSS
VL: DIQMTQSPSSLSASVGDTVTITCRASQGIRSDLGWYQQRPGKAPKLLVYTASTLQTGVPSRFSGSGFGTDFTLTISSLQPEDFATYYCLQNYNYPRTFGQGTKVEIK
B5: TT-Ab7 (antibody, V domains shown)
VH: EVQLVESGGGWVQPGGSLRLSCAASGFTFNSFGSYGMSWVRQAPGKGLEWVSHISASGAATYYADSVKGRFTISRDNSKNTLLLQMNDLRGEDTATYYCARSVQQYLGLLGYWGQGTLVTVSS
VL: QSVLTQSPSASASLGATVKLTCTLSSGHTNYAIAWHQLQPQKAPRYLLKISNDGSHKRGDGIPDRFSGSSSGAERYLTISSLQSEDEAEYYCQTWGAGMGMFGGGTKLTVL

This assay deals with T1, tetanus toxoid. As to the kind of experiment: ELISA.
Molecule B1 gave an EC50 of 0.869 µM.

B2 came in with an EC50 of 0.228 µM.

Take B3: the EC50 is 1.06 µM. Then B4, with 1.05 µM.

In the case of B5, the EC50 is 0.655 µM.
